Experimental data: paper PMC10007213

Experiments:
[1] = biological target: Dendrorhynchus zhejiangensis ferritin (DzFer) (Dendrorhynchus zhejiangensis); assay: crystal structure; Cu^2+-DzFer crystallised (0.2 M sodium citrate, 0.1 M Tris pH 8.5, 30% PEG 400); space group I432; 2.26 Å
[2] = biological target: Dendrorhynchus zhejiangensis ferritin (DzFer) (Dendrorhynchus zhejiangensis); assay: crystal structure; DzFer crystals (0.2 M ammonium sulfate, 0.1 M sodium acetate pH 4.6, 30% PEG MME 2000) soaked 1 min with 100 mM AgNO3; space group I432; 1.90 Å
[3] = biological target: Dendrorhynchus zhejiangensis ferritin (DzFer) (Dendrorhynchus zhejiangensis); assay: native gel or EMSA; Native-PAGE, 6% gel, 4 °C, Tris-glycine pH 8.3; purified tag-free DzFer, also after incubation and dialysis at pH 4, 6, 8, 10, 12, and as Ag^+-DzFer and Cu^2+-DzFer; subunits to 24-mer cage

Measured: stoichiometry N

Dendrorhynchus zhejiangensis ferritin (DzFer) (natural protein)
24: all assays above
